The record followed here is publication PMC8640787.

This assay has as its target gastrin-releasing peptide receptor (GRPR) with a C-terminal NLuc tag (human) (UniProt P30550). Nature of the assay: FRET or BRET.
UniProt P30550, sequence (P30550 whole entry): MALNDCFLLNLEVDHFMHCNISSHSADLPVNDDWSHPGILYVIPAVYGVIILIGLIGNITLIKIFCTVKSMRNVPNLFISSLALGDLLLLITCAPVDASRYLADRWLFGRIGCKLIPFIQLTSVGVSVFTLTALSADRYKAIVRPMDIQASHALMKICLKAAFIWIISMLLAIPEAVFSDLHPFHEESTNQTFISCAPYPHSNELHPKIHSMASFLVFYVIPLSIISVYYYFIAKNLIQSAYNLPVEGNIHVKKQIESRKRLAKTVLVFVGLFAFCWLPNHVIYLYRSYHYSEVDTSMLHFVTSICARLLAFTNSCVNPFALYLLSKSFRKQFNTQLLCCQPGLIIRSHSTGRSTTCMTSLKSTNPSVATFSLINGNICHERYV

For the substance venus-mGq (engineered mini Gαq probe), the efficacy of miniGq recruitment with AG-2-BBN-1 (% of AMBA) was 57%.
